In patent US20030099608A1 (ZymoGenetics, published 2003):

Columns and labels:
[1] = biological target: human IL-TIF (T-cell inducible Factor) (human) (UniProt Q9GZX6); assay: cell-based or functional assay
[2] = biological target: T1, CRF2-4/zcytor11 heterodimeric receptor on BaF3 cells (BaF3/CRF2-4/zcytor11 cells) (human, UniProt Q08334 20-325; Q8N6P7 16-574); assay: cell-based or functional assay
T1 sequence (looked up) 1: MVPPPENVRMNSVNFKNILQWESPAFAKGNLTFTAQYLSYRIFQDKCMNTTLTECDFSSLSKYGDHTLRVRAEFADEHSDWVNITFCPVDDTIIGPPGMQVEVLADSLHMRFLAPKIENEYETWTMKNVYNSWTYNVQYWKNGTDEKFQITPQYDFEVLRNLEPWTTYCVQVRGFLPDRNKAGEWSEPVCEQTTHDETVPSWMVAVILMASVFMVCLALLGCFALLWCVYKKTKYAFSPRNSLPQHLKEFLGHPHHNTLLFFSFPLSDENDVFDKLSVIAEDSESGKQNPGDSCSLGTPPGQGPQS
T1 sequence (looked up) 2: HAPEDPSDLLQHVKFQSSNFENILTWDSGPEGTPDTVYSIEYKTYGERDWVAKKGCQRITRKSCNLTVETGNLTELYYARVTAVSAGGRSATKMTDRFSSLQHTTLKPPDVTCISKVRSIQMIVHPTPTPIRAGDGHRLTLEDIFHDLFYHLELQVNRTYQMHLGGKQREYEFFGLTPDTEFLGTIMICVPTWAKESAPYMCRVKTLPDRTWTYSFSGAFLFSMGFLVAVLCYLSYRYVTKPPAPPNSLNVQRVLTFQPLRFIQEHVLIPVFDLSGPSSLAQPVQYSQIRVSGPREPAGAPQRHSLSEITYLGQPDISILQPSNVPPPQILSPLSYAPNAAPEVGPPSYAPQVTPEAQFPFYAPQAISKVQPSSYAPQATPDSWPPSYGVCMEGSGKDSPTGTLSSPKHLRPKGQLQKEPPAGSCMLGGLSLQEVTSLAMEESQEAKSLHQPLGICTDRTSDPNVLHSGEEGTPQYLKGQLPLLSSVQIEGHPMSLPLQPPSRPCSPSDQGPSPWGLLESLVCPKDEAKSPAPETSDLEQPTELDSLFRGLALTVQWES

secreted hzcytor11/hCRF2-4 heterodimer (CRF2-4/zcytor11-Fc4) (Fc fusion)
concentration of CRF2-4/zcytor11-Fc4 at which inhibition of proliferation induced by 100 pg/ml IL-TIF was barely detectable [1]: 63 ng/mL
concentration of CRF2-4/zcytor11-Fc4 giving complete inhibition of proliferation induced by 100 pg/ml IL-TIF [1]: 8 µg/mL

B1: human IL-TIF (T-cell inducible Factor) (ligand)
chain: APISSHCRLDKSNFQQPYITNRTFMLAKEASLADNNTDVRLIGEKLFHGVSMSERCYLMKQVLNFTLEEVLFPQSDRFQPYMQEVVPFLARLSNRLSTCHIEGDDLHIQRNVQKLKDTVKKLGESGEIKAIGELDLLFMSLRNACI
proliferation of BaF3/CRF2-4/zcytor11 cells (Alamar Blue), fold over background with 100 pg/ml IL-TIF alone [2]: 13 fold over background

B2: IL-TIF-CEE (IL-TIF polypeptide with C-terminal Glu-Glu tag) (ligand)
chain: APISSHCRLDKSNFQQPYITNRTFMLAKEASLADNNTDVRLIGEKLFHGVSMSERCYLMKQVLNFTLEEVLFPQSDRFQPYMQEVVPFLARLSNRLSTCHIEGDDLHIQRNVQKLKDTVKKLGESGEIKAIGELDLLFMSLRNACIEYMPME
proliferation of BaF3/CRF2-4/zcytor11 cells (Alamar Blue), fold induction at 0.06 ng/ml IL-TIF-CEE [2]: 2 fold induction
proliferation of BaF3/CRF2-4/zcytor11 cells (Alamar Blue), fold over background at 50 ng/ml IL-TIF-CEE [2]: ~15 fold over background
